Experimental findings from article PMC7044329 are described below.

In this experiment the target is transcriptional activation domain of ATF6α. Briefly: affinity purification with mass spectrometry; Mediator enriched from wild-type and MED26 hypomorphic HEK293T cells by binding to the ATF6α transcriptional activation domain (glutathione affinity); semi-quantitative MudPIT.

With “mutant MED26 that lacks the NTD (from UniProt O95402 1-600) (natural protein)”, the level in Mediator relative to wild-type MED26 fell in the range of 30 to 50%.
